The results in this text go back to the supplement of paper PMC9170038.

The subject of this series is MS2 coat protein. Briefly: apparent KD of MS2 coat protein; designed switch direction (-1 OFF switch, 1 ON switch): 1; higher = weaker reporter binding. A digest of the protocol: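 Apparent KD, taken as the median over clusters for each design, was obtained by curve-fitting normalised cluster fluorescence. Designed RNA switches had been transcribed on Illumina chips by stalled E. coli RNA polymerase and titrated with SNAP-549-labelled MS2 coat protein, doubling from 0.7 or 1.5 nM to 3 µM.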

[1] abbreviates: input ligand: microRNA oligo, concentration not stated.
Where [2] appears, read: Eterna round: R95, input ligand: FMN 200 uM.
Where [3] appears, read: Eterna round: R95, input ligand: microRNA oligo, concentration not stated.
[4] abbreviates: Eterna round: R95, input ligand: none.

Take “AGCGAAAGCAGUCACAUGAGGAUCACCCAUGUAUUAACUAUUGAGGAUAUGCAGCGACGGGUGUAGCAGAAGGCAGUGAGAAGG [Eternabot solution 30] (Eterna round: R96, puzzle: Same State NG 3)”: the “apparent KD of MS2 coat protein” value amounted to 0.0544 µM (input ligand: FMN 200 uM), 0.0521 µM under setting [1] and 0.0611 µM (input ligand: none).

As for “AGCUAGUACCGAGGAUAUACGUACAUGAGGAUCACCCAUGUAUACAUGAAAUAAUGAGACUACAUGUAGAAGGCGGUACUAGCA [Mat - Same State NG 2 - JL mod - D50] (Eterna round: R96, puzzle: Same State NG 2)”, the “apparent KD of MS2 coat protein” value is 0.0142 µM (input ligand: FMN 200 uM), 0.0335 µM under setting [1] and 0.0487 µM (input ligand: none).

For the sequence “AGCUAUCGAAAACGAUAGCAAAAGCGUGUACAUGAGGAUCACCCAUGUCAUGUACAAGCUUUUUGCUCGUCUUAAAA [Zipper 23 - 6] (puzzle: Sensor for hsa-mir-208a)”, the “apparent KD of MS2 coat protein” value was 0.034 µM under setting [2], 0.0144 µM under setting [3] and 0.0418 µM under setting [4].

Regarding “AGCUAUCGAAAACGAUAGCAUAAGCAUGUACAUGAGGAUCACCCAUGUCAUGUACAAGCUUUUUGCUCGUCUUAAAA [JL zipper 27] (Eterna round: R96, puzzle: Sensor for hsa-mir-208a)”, the “apparent KD of MS2 coat protein” value by setting is: (input ligand: FMN 200 uM) 0.411 µM; under setting [1], 0.0143 µM; (input ligand: none) 0.426 µM.

Take “AGCUAUUAAUCAGGAUAUAGGGACAUGAGGAUCACCCAUGUAUACAUGAUGAAAUGUGAUCACGUCUAGAAGGGAUUACUAACA [SameState NG2 #40] (Eterna round: R96, puzzle: Same State NG 2)”: the “apparent KD of MS2 coat protein” value runs as follows: (input ligand: FMN 200 uM) 0.236 µM; under setting [1], 0.299 µM; (input ligand: none) 0.134 µM.

As to “AGCUAUUAAUCAGGAUAUAGGGACAUGAGGAUCACCCAUGUAUACAUGAUGAAAUGUGGUCACGUCUAGAAGGGAUUACUAACA [SameState NG2 #41] (Eterna round: R96, puzzle: Same State NG 2)”, the “apparent KD of MS2 coat protein” value came out at 0.15 µM (input ligand: FMN 200 uM), 0.184 µM under setting [1] and 0.262 µM (input ligand: none).

With “AGCUAUUAAUCAGGAUAUGGUCACAUGAGGAUCACCCAUGUGUAGAUGAUAAAAUGUGGUCAAGACUAGAAGGGAUUGCUAACA [SameState NG2 #62] (Eterna round: R96, puzzle: Same State NG 2)”, the “apparent KD of MS2 coat protein” value runs as follows: (input ligand: FMN 200 uM) 0.125 µM; under setting [1], 0.0493 µM; (input ligand: none) 0.0959 µM.

Turning to “AGCUAUUACGCAGGAUAUAGGGACAUGAGGAUCACCCAUGUGUACAUGAGUAAAUGUGAUCACGUCUAGAAGGGUGUACUAACA [SameState NG2 #37] (Eterna round: R96, puzzle: Same State NG 2)”, the “apparent KD of MS2 coat protein” value came out at 0.684 µM (input ligand: FMN 200 uM), 0.326 µM under setting [1] and 0.321 µM (input ligand: none).

In the case of “AGCUGUGGAAAACUAUAGCAAAAGUAUGUACAUGAGGAUCACCCAUGUCAUGUACAAGCUUUUUGCUCGUCUUAAAA [ak 5 mod of one Eli's designs.] (puzzle: Sensor for hsa-mir-208a)”, the “apparent KD of MS2 coat protein” value by setting is: under setting [2], 0.0424 µM; under setting [3], 0.0187 µM; under setting [4], 0.0904 µM.

Consider “AGGAAACAUGAGGAUCACCCAUGUAUCGAGCCGCGAGGAUAUGGGUAUCAAAGGCGAGGAUCAGAAGGUGCAGGCG [Eseddierve] (puzzle: Same State 1)”, for which the “apparent KD of MS2 coat protein” value reads like this: under setting [2], 0.235 µM; under setting [3], 0.0549 µM; under setting [4], 0.153 µM.

As to “AGGCUCAGACGAGGAUAUAUGUCUCGAGCUUCGGCUCGAGACAUGAGGAUCACCCAUGUAAUAACAUAGAAGGCGUCUGAGCCA [SSNG2/1-A1] (Eterna round: R96, puzzle: Same State NG 2)”, the “apparent KD of MS2 coat protein” value came to 0.0157 µM (input ligand: FMN 200 uM), 0.0249 µM under setting [1] and 0.037 µM (input ligand: none).

Turning to “AGGCUCAGACGAGGAUAUGGUCAUGGCGCUUCGGCGCAUACAUGAGGAUCACCCAUGUAGGGUGAUCAGAAGGUGUCUGAGCCA [SSNG2/9-B1] (Eterna round: R96, puzzle: Same State NG 2)”, the “apparent KD of MS2 coat protein” value runs as follows: (input ligand: FMN 200 uM) 0.171 µM; under setting [1], 0.72 µM; (input ligand: none) 0.892 µM.

For “AGUAGUUUAACAUGAGGAUCACCCAUGUAUCUAUCUGUAACCUAGGAUAUGGACGUUGUAUUUAACCAGAAGGAGGAUCGUUUA [JR_SSNG3_Sub046] (Eterna round: R96, puzzle: Same State NG 3)”, the “apparent KD of MS2 coat protein” value under setting [1] came to 0.0227 µM.

Take “AGUCCAGCAUGAGCUGGACAAAAGCAUGUACAUGAGGAUCACCCAUGUCAUGUACAAGCUUUUUGCUCGUCUUAAAA [Mat - hsa-mir-208a - Mod of JL - D1] (puzzle: Sensor for hsa-mir-208a)”: the “apparent KD of MS2 coat protein” value stood at 0.512 µM under setting [2], 0.0167 µM under setting [3] and 0.627 µM under setting [4].

For the sequence “AGUCCAGCAUGAGCUGGACAAAAGCAUGUACAUGAGGAUCACCCAUGUUCAUGUACAAGCUUUUUGCUCGUCUUAAG [Mat - hsa-mir-208a - Mod of JL - 63] (puzzle: Sensor for hsa-mir-208a)”, the “apparent KD of MS2 coat protein” value under setting [2] stood at 0.568 µM, the “apparent KD of MS2 coat protein” value under setting [3] amounted to 0.018 µM and the “apparent KD of MS2 coat protein” value under setting [4] was 0.802 µM.

“AGUCCAGCCUGAGCUGGACAAAAGCAUGUACAUGAGGAUCACCCAUGUCAUGUACAAGCUUUUUGUUCGUCUUAAUA [Zipper 49 - 13] (puzzle: Sensor for hsa-mir-208a)”: the “apparent KD of MS2 coat protein” value by setting is: under setting [2], 0.258 µM; under setting [3], 0.0146 µM; under setting [4], 0.35 µM.

In the case of “AGUCCAGCCUGAGCUGGACAAAAGCAUGUACAUGAGGAUCACCCAUGUUCAUGUACAAGCUUUUUGCUCGUCUUAGG [salish99_208a_r3_062] (puzzle: Sensor for hsa-mir-208a)”, the “apparent KD of MS2 coat protein” value under setting [2] was 0.375 µM, the “apparent KD of MS2 coat protein” value under setting [3] amounted to 0.0218 µM and the “apparent KD of MS2 coat protein” value under setting [4] turned out to be 0.686 µM.

As for “AGUCCAGCCUGAGCUGGACAAAAGCAUGUACAUGAGGAUCACCCAUGUUCAUGUACAAGCUUUUUGCUCGUCUUAUC [salish99_208a_r3_058] (puzzle: Sensor for hsa-mir-208a)”, the “apparent KD of MS2 coat protein” value is 0.578 µM under setting [2], 0.0166 µM under setting [3] and 0.677 µM under setting [4].

For “AGUCCAGCCUGAGCUGGACAAAAGCAUGUACAUGAGGAUCACCCAUGUUCAUGUACAAGCUUUUUGCUCGUCUUGGA [salish99_208a_r3_103x] (puzzle: Sensor for hsa-mir-208a)”, the “apparent KD of MS2 coat protein” value worked out at 0.35 µM under setting [2], 0.0162 µM under setting [3] and 0.505 µM under setting [4].

“AGUCCAGCCUGAGCUGGACAAAAGCAUGUACAUGAGGAUCACCCAUGUUCAUGUAUAAGCUUUUUGCUCGUCUUAAA [Zipper 52 - 11] (puzzle: Sensor for hsa-mir-208a)”: the “apparent KD of MS2 coat protein” value runs as follows: under setting [2], 0.0185 µM; under setting [3], 0.0102 µM; under setting [4], 0.0172 µM.
